This is an account of results in patent US20030171276A1, “Preventives and remedies for chronic hepatitis” (priority 1999, published 2003).

Test [1] has as its system recombinant E2 protein binding to CD81 expressed in Jurkat cells. Nature of the test: Inhibition of binding of recombinant E2 protein to Jurkat cells (FACScan). The class given is cell-based, HCV. As to conditions: 1 μg recombinant E2 protein preincubated with 10 μL of 1 mg/mL solution, room temperature 1 hour; FIG. 14. How it is done: An oligopeptide capable of binding to HCV E2 antigen is reacted with the HCV E2 antigen to study whether or not binding of CD81 expressed in Jurkat cells purchased from DAINIPPON PHARMACEUTICAL CO., LTD. to the HCV E2 antigen is inhibited. By the study, whether or not the selected oligopeptide inhibits adhesion of the HCV E2 antigen to CD81-positive cells can be estimated. The inhibitory activity for adhesion of CD81 to the IICV E2 antigen was assayed in accordance with the literature. The concrete description will be given hereinbelow.
The Jurkat cells were prepared in the same manner as in item (1), and suspended in WB so as to have a concentration of 4×10^6 cells/mL, to give a Jurkat cell suspension. […]
Hereinafter, in the same manner as in the item (1) above, the resulting product was reacted with an FITC-labeled anti-mouse IgG1 antibody, and thereafter the reaction mixture was suspended in 0.2 mL of a 10% neutral buffered formalin solution. As to the resulting product, E2 protein bound to Jurkat cells was analyzed by using FACScan.
One microgram of the recombinant E2 protein, and 10 μL of the TAPA148, bLF or bLF443 solution obtained in item (4) above were added to a 6 mm rounded-bottom tube and, and WB was then added thereto, to give 50 μL of a mixture. […] As to the resulting suspension, E2 protein bound to Jurkat cells was analyzed by using FACScan.

The test system of another test is HCV. As to conditions: cited from earlier work.

B1: bLF: bovine lactoferrin protein (SERVA Electrophoresis GmbH) (protein, UniProt P24627 20-708, looked up)
Lactotransferrin: APRKNVRWCTISQPEWFKCRRWQWRMKKLGAPSITCVRRAFALECIRAIAEKKADAVTLDGGMVFEAGRDPYKLRPVAAEIYGTKESPQTHYYAVAVVKKGSNFQLDQLQGRKSCHTGLGRSAGWIIPMGILRPYLSWTESLEPLQGAVAKFFSASCVPCIDRQAYPNLCQLCKGEGENQCACSSREPYFGYSGAFKCLQDGAGDVAFVKETTVFENLPEKADRDQYELLCLNNSRAPVDAFKECHLAQVPSHAVVARSVDGKEDLIWKLLSKAQEKFGKNKSRSFQLFGSPPGQRDLLFKDSALGFLRIPSKVDSALYLGSRYLTTLKNLRETAEEVKARYTRVVWCAVGPEEQKKCQQWSQQSGQNVTCATASTTDDCIVLVLKGEADALNLDGGYIYTAGKCGLVPVLAENRKSSKHSSLDCVLRPTEGYLAVAVVKKANEGLTWNSLKDKKSCHTAVDRTAGWNIPMGLIVNQTGSCAFDEFFSQSCAPGADPKSRLCALCAGDDQGLDKCVPNSKEKYYGYTGAFRCLAEDVGDVAFVKNDTVWENTNGESTADWAKNLNREDFRLLCLDGTRKPVTEAQSCHLAVAPNHAVVSRSDRAAHVKQVLLHQQALFGKNGKNCPDKFCLFKSETKNLLFNDNTECLAKLGGRPTYEEYLGTEYVTAIANLKKCSTSPLLEACAFLTR
Take B1: the “inhibitory action of binding of E2 protein to Jurkat cells” value in test [1] was “inhibitory action of binding of the E2 protein”.

B2: lactoferrin: lactoferrin contained in breast milk (protein, UniProt P02788 20-710, looked up)
Lactotransferrin: GRRRSVQWCAVSQPEATKCFQWQRNMRKVRGPPVSCIKRDSPIQCIQAIAENRADAVTLDGGFIYEAGLAPYKLRPVAAEVYGTERQPRTHYYAVAVVKKGGSFQLNELQGLKSCHTGLRRTAGWNVPIGTLRPFLNWTGPPEPIEAAVARFFSASCVPGADKGQFPNLCRLCAGTGENKCAFSSQEPYFSYSGAFKCLRDGAGDVAFIRESTVFEDLSDEAERDEYELLCPDNTRKPVDKFKDCHLARVPSHAVVARSVNGKEDAIWNLLRQAQEKFGKDKSPKFQLFGSPSGQKDLLFKDSAIGFSRVPPRIDSGLYLGSGYFTAIQNLRKSEEEVAARRARVVWCAVGEQELRKCNQWSGLSEGSVTCSSASTTEDCIALVLKGEADAMSLDGGYVYTAGKCGLVPVLAENYKSQQSSDPDPNCVDRPVEGYLAVAVVRRSDTSLTWNSVKGKKSCHTAVDRTAGWNIPMGLLFNQTGSCKFDEYFSQSCAPGSDPRSNLCALCIGDEQGENKCVPNSNERYYGYTGAFRCLAENAGDVAFVKDVTVLQNTDGNNNEAWAKDLKLADFALLCLDGKRKPVTEARSCHLAMAPNHAVVSRMDKVERLKQVLLHQQAKFGRNGSDCPDKFCLFQSETKNLLFNDNTECLARLHGKTTYEKYLGPQYVAGITNLKKCSTSPLLEACEFLRK
For B2, the “amount of virus in blood” value in the test on HCV is “reduces an amount of virus in blood”. Further, the “binding to HCV” value in the test with HCV (lactoferrin contained in breast milk) is on record as “binds to HCV”.
